Data on 13 molecules can be found in US20250257133A1 (ADAGENE PTE, published 2025).

Numbering of substitutions follows the chain as printed. In names and notes the source's numbering stands.

In assay [1] the target is T1, Recombinant human CD28-Fc (human, UniProt P10747 19-152).
T1 construct: not shown: Fc part
In words: ELISA, coated CD28-Fc. (An ELISA detects its analyte on a solid surface through an enzyme-linked reagent.)

In assay [2] the target is T2, Recombinant mouse CD28-Fc (mouse, UniProt P31041 20-150).
T2 construct: not shown: Fc part
In words: ELISA, coated CD28-Fc.

The target in assay [3] is T3, His-tagged human CD28 protein (human, UniProt P10747 19-152).
T3 construct: not shown: His tag
The experiment in a line: Octet BLI, mAb captured.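 Note: Anti-human Fc biosensors captured the antibodies, then His-tagged protein analytes at 100 nM associated for 300 s and dissociated for 300 s, fitted by a 1:1 Langmuir model.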 A general note: In BLI a coated tip is dipped into the sample, and binding shifts an interference pattern.

The target of assay [4] is T4, His-tagged human CTLA4 protein (human, UniProt P16410 36-161, limits assumed).
T4 construct: not shown: His tag
The experiment in a line: Octet BLI, mAb captured.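 Note: Anti-human Fc biosensors captured the antibodies, then His-tagged protein analytes at 100 nM associated for 300 s and dissociated for 300 s, fitted by a 1:1 Langmuir model.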

The next assay has as its target T5, Human CD28 on cells (human, UniProt P10747 19-220).
T5 construct: Jurkat E6-1 cells, primary human T cells, or transfected HEK293F cells; also called CD28 on Jurkat cells; CD28 on human CD3+ T cells
In words: flow cytometry, Jurkat cells. (In flow cytometry, cells or beads pass a laser one at a time.)

The target in assay [5] is Human CD28 (ELISAs of Examples 4 and 13) (human, UniProt P10747 19-152, limits assumed). In words: ELISA, blocking of CD28-CD80.

T4 sequence (P16410 36-161 limits assumed): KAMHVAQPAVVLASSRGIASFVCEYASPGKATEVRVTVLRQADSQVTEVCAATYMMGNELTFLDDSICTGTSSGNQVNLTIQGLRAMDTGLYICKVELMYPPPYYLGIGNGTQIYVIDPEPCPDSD
T2 sequence (P31041 20-150 limits assumed): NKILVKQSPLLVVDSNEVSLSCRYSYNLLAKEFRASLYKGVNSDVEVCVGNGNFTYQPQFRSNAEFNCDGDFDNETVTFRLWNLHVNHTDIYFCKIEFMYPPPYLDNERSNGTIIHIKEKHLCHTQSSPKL
Method for Human CD28 on cells: Next, the cells were washed twice with DPBS and further incubated with a APC-anti-human IgG Fc secondary antibody (1 μg/mL, 100 μL/well, Biolegend) for 30 minutes at 4° C. Finally, the cells were washed twice with DPBS and suspended in FACS buffer for flow cytometry analysis. For analysis, the Mean Fluorescence Intensity (MFI) values versus concentrations were plotted using FlowJo 10 software (FlowJo LLC) and the data were further fitted with four-parameter non-linear regression to obtain EC₅₀ values by GraphPad Prism version 7 for Windows, GraphPad Software, La Jolla California USA, www.graphpad.com.

B1: TY24878 (antibody, human IgG4 S228P, kappa, V domains shown)
VH: QVQLVQSGAEVKKPGSSVKVSCKASGFSLSTGGVAVAWIRQAPGQGLEWIGQIYYSGSTYYNPSLKSRVTITADKSTSTAYMELSSLRSEDTAVYYCARSSAHYYFDVWGQGTLVTVSS
VL: DIQLTQSPSSLSASVGDRVTITCRASESVDFQGISFLDWYQQKPGKAPKLLIYDASSLESGVPSRFSGSGSGTDFTLTISSLQPEDFATYYCQQSYRSPITFGQGTKVEIKR
notes: hIgG4/S241P
With B1, the concentration giving a half-maximal response (EC50) in assay [1] is 1.06 nM; in assay [2] it was greater than 14.8 nM; in the assay with Human CD28 on cells, 0.39 nM. The Kd in assay [3] stood at 4.21 nM; in assay [4] it was 0.969 nM. The figures for the dissociation rate constant (koff) in assay [3] and in assay [4] were 0.000411 s⁻¹ and 0.00041 s⁻¹, respectively. The kon was 97500 M⁻¹ s⁻¹ in assay [3] and 423000 M⁻¹ s⁻¹ in assay [4]. This molecule registered a concentration for half-maximal inhibition (IC50) in assay [5] of 0.35 nM.

B2: TY24855 (antibody, human IgG4 S228P, kappa, V domains shown)
VH: EVQLVESGGGLVQPGGSLRLSCAASGYSITSGHHWSWIRQAPGKGLEWIGDIYHSGSTYYNPSLKSRVTISRDNSKNTLYLQLNSLRAEDTAVYYCARKDDYYAFDYWGQGTLVTVSS
VL: B1 VL with S26P, E27Q, Q32H, I34K, D38H, S57N, L58R, E59A, S60T, V62I
notes: hIgG4/S241P
In assay [3], B2 registered a Kd of 7.93 nM, a koff of 0.000628 s⁻¹ and a kon of 79200 M⁻¹ s⁻¹. In assay [4], this molecule had a dissociation constant (Kd) of 4.02 nM, a koff of 0.00305 s⁻¹ and a kon of 760000 M⁻¹ s⁻¹. Further, the EC50 with Human CD28 on cells came out at 0.61 nM.

B3: TY24869 (antibody, human IgG4 S228P, kappa, V domains shown)
VH: QVQLVQSGAEVKKPGSSVKVSCKASGYSISSGYHWGWIRQAPGQGLEWIGAIYHSGSTYYSPSLKSRVTITADKSTSTAYMELSSLRSEDTAVYYCARSGLVYYAFDYWGQGTLVTVSS
VL: DIQLTQSPSSLSASVGDRVTITCRASQGIGSYLAWYQQKPGKAPKLLIYDASSLESGVPSRFSGSGSGTDFTLTISSLQPEDFATYYCQQYSTSPLTFGQGTKVEIKR
notes: hIgG4/S241P
As for B3, the half-maximal effective concentration (EC50) in assay [1] was 0.87 nM; in assay [2], greater than 14.8 nM; with Human CD28 on cells, 1.07 nM. In addition, the dissociation constant (Kd) in assay [3] worked out at 2.73 nM; in assay [4], 1.2 nM. The koff in assay [3] worked out at 0.000128 s⁻¹; in assay [4], 0.000454 s⁻¹. For the same molecule, the kon was determined as 46800 M⁻¹ s⁻¹ in assay [3] and 379000 M⁻¹ s⁻¹ in assay [4]. This molecule also displayed an IC50 in assay [5] of 0.55 nM.

B4: TY24877 (antibody, human IgG4 S228P, kappa, V domains shown)
VH: QVQLVQSGAEVKKPGSSVKVSCKASGYTFTNYGIHWVRQAPGQGLEWIGEIYHSGSTYYSPSLKSRVTITADKSTSTAYMELSSLRSEDTAVYYCARGPLSYYALDYWGQGTLVTVSS
VL: B3 VL with G28S, G30R, S31R, Y32F, A34N, S92Y, T93R, L96I
notes: hIgG4/S241P
In assay [3], B4 came in with a Kd of 7.19 nM, an off-rate (koff) of 0.000193 s⁻¹ and a kon of 26900 M⁻¹ s⁻¹. In assay [4], this molecule had a Kd of 13.2 nM, a koff of 0.00311 s⁻¹ and a kon of 235000 M⁻¹ s⁻¹. The molecule also had an EC50 in the assay with Human CD28 on cells of 0.79 nM.

B5: TY24876 (antibody, human IgG4 S228P, kappa, V domains shown)
VH: B3 VH with S30T, S99G, G100P, V102S
VL: DIQLTQSPSSLSASVGDRVTITCRASQSVSRYLAWYQQKPGKAPKLLIYDASNRATGIPSRFSGSGSGTDFTLTISSLQPEDFATYYCQQYYRSPITFGQGTKVEIKR
notes: hIgG4/S241P
Regarding B5, the EC50 came to 1.02 nM in assay [1], 3.93 nM in assay [2] and 0.38 nM in the assay with Human CD28 on cells. Besides, the Kd was less than 0.001 nM in assay [3] and 4.28 nM in assay [4]. For the same molecule, the koff was less than 1e-07 s⁻¹ in assay [3] and 0.000585 s⁻¹ in assay [4]. In addition, the kon in assay [3] was 32500 M⁻¹ s⁻¹; in assay [4] it was 137000 M⁻¹ s⁻¹. The molecule further gave an IC50 in assay [5] of 0.54 nM.

B6: TY24879 (antibody, human IgG4 S228P, kappa, V domains shown)
VH: B3 VH with A51S, S61N, V102R, Y108V
VL: DIQLTQSPSSLSASVGDRVTITCAASQDVSTAVAWYQQKPGKAPKLLIYAASSLQSGVPSRFSGSGSGTDFTLTISSLQPEDFATYYCQQSYRSPITFGQGTKVEIKR
notes: hIgG4/S241P
Take B6: the EC50 in assay [1] is 0.9 nM; in assay [2], greater than 1.65 nM; in the assay with Human CD28 on cells, 1.17 nM. Also, the dissociation constant Kd was less than 0.001 nM in assay [3] and 7.17 nM in assay [4]. The koff in assay [3] was less than 1e-07 s⁻¹; in assay [4] it was 0.00313 s⁻¹. Besides, the kon came out at 59400 M⁻¹ s⁻¹ in assay [3] and 437000 M⁻¹ s⁻¹ in assay [4]. Moreover, the IC50 in assay [5] was 0.42 nM.

B7: TY24884 (antibody, human IgG4 S228P, kappa, V domains shown)
VH: QVQLVQSGAEVKKPGSSVKVSCKASGFTFSGYAIHWVRQAPGQGLEWIGQIYHSGSTYYNPSLKSRVTITADKSTSTAYMELSSLRSEDTAVYYCARSGYGGYDFDYWGQGTLVTVSS
VL: DIQLTQSPSSLSASVGDRVTITCRASQSVPRRYLAWYQQKPGKAPKLLIYAASTLQSGVPSRFSGSGSGTDFTLTISSLQPEDFATYYCQQYYRSPITFGQGTKVEIKR
notes: hIgG4/S241P
For the molecule B7, the EC50 in assay [1] is 1.02 nM; in assay [2] it was greater than 44.4 nM; in the assay with Human CD28 on cells, 1.09 nM. For the same molecule, the Kd in assay [3] worked out at 2.42 nM; in assay [4], 6.36 nM. Besides, the values for the koff in assay [3] and in assay [4] were 0.000166 s⁻¹ and 0.00408 s⁻¹, respectively. Moreover, the values for the kon in assay [3] and in assay [4] were 68400 M⁻¹ s⁻¹ and 641000 M⁻¹ s⁻¹, respectively. For the same molecule, in assay [5], the IC50 was determined as 0.28 nM.

B8: TY24858 (antibody, human IgG4 S228P, kappa, V domains shown)
VH: EVQLVESGGGLVQPGGSLRLSCAASGYSISSGHHWTWIRQAPGKGLEWIGEIYHSGSTYYSPSLKSRVTISRDNSKNTLYLQLNSLRAEDTAVYYCARRDYGSSYFDYWGQGTLVTVSS
VL: B7 VL with P30S, R32S, Y33F, A51D, T54N, L55R, Q56A, S57T, V59I
notes: hIgG4/S241P
For B8, in assay [3], the dissociation constant (Kd) amounted to 9.88 nM, the off-rate constant (koff) amounted to 0.000702 s⁻¹ and the kon worked out at 71000 M⁻¹ s⁻¹. In addition, in assay [4], the affinity, expressed as Kd, was 7.9 nM; the off-rate constant (koff) came out at 0.00242 s⁻¹; the kon was 306000 M⁻¹ s⁻¹. It took 0.7 nM to reach a half-maximal effect in the assay with Human CD28 on cells (EC50).

B9: TY24859 (antibody, human IgG4 S228P, kappa, V domains shown)
VH: EVQLVESGGGLVQPGGSLRLSCAASGFSLSTGGVGVGWIRQAPGKGLEWIGEIYHSGSTYYSPSLKSRVTISRDNSKNTLYLQLNSLRAEDTAVYYCARYGYSYYALDYWGQGTLVTVSS
VL: DIQLTQSPSSLSASVGDRVTITCSASSSVGYVQWYQQKPGKAPKLLIYDASNLETGVPSRFSGSGSGTDFTLTISSLQPEDFATYYCQQSYTSPRTFGQGTKVEIKR
notes: hIgG4/S241P
As for B9, the results for the EC50 (in assay [1]; in assay [2]; with Human CD28 on cells) were 1.34 nM, greater than 44.4 nM and 0.97 nM, respectively. Moreover, the figures for the Kd in assay [3] and in assay [4] were 2.68 nM and 6.63 nM, respectively. In addition, the off-rate constant (koff) is 0.00019 s⁻¹ in assay [3] and 0.00311 s⁻¹ in assay [4]. Further, the kon in assay [3] is 70800 M⁻¹ s⁻¹; in assay [4] it was 469000 M⁻¹ s⁻¹. Also, in assay [5], the IC50 is 0.42 nM.

B10: TY24866 (antibody, human IgG4 S228P, kappa, V domains shown)
VH: B9 VH with S62P, G101E, Y104S, A106G
VL: B3 VL with G28D, G30R, S31K, Y32F, Y91S, S92Y, T93R, L96R
notes: hIgG4/S241P
For the molecule B10, the EC50 in assay [1] is 0.57 nM; in assay [2], greater than 1.65 nM; with Human CD28 on cells, 0.7 nM. For the same molecule, the Kd in assay [3] is less than 0.001 nM; in assay [4], 7.64 nM. Besides, the koff in assay [3] was less than 1e-07 s⁻¹; in assay [4], 0.004 s⁻¹. Moreover, the kon was 58000 M⁻¹ s⁻¹ in assay [3] and 524000 M⁻¹ s⁻¹ in assay [4]. In assay [5], this molecule came in with an IC50 of 0.27 nM.

B11: TY24860 (antibody, human IgG4 S228P, kappa, V domains shown)
VH: B9 VH with G32S, G37S, Y100K, S103Y, L107F, Q112P
VL: B6 VL with A24R, V29I, S30G, T31S, A32F, V33L, I96P
notes: hIgG4/S241P
In assay [3], B11 had a Kd of 6.66 nM, a koff of 0.000421 s⁻¹ and a kon of 63200 M⁻¹ s⁻¹. Also, the binding result in assay [4] was “no binding (tested: 100 nM CTLA4)”. For the same molecule, the response with Human CD28 on cells was half-maximal at 0.78 nM (EC50).

B12: TY24857 (antibody, human IgG4 S228P, kappa, V domains shown)
VH: B9 VH with G32S, G35A, Y100H, S103H
VL: B6 VL with A24P, S30G, A50D, Q55E, S91Y, R93S, I96P
notes: hIgG4/S241P
In assay [3], B12 displayed a Kd of 8.64 nM, a koff of 0.00063 s⁻¹ and a kon of 72900 M⁻¹ s⁻¹. Further, in assay [4], binding was put at a Kd of 5.44 nM, the koff amounted to 0.00355 s⁻¹ and the kon turned out to be 652000 M⁻¹ s⁻¹. This molecule also had a concentration for a half-maximal effect (EC50) with Human CD28 on cells of 0.75 nM.

B13: TY24856 (antibody, human IgG4 S228P, kappa, V domains shown)
VH: B8 VH with T36S, Y101F, S103A
VL: DIQLTQSPSSLSASVGDRVTITCRASQGVGPWLAWYQQKPGKAPKLLIYAASSLQSGVPSRFSGSGSGTDFTLTISSLQPEDFATYYCQQYYSYSTFGQGTKVEIKR
notes: hIgG4/S241P
In assay [3], B13 had a Kd of 7.8 nM, a koff of 0.000538 s⁻¹ and a kon of 68900 M⁻¹ s⁻¹. In addition, in assay [4], the Kd is 5.13 nM, the koff turned out to be 0.00156 s⁻¹ and the association rate constant (kon) stood at 304000 M⁻¹ s⁻¹. This molecule showed a concentration giving a half-maximal response (EC50) with Human CD28 on cells of 0.76 nM.

What is called EC50 is the concentration needed to bring the measured effect to its halfway point. For orientation: Kd means the free concentration of one partner at which half of the binding sites on the other are occupied at equilibrium, for simple one-to-one binding. A lower Kd goes with a tighter complex. By koff is commonly meant a measure of how fast the partners let go of each other. A low value points to a long-lived complex. Broadly, the kon is the rate constant with which the complex forms. Read a low kon as slower complex formation. By IC50 is commonly meant the concentration at which inhibition is half-maximal.
